In the assay the target is SpcU (Pseudomonas aeruginosa, UniProt O66100 1-137). Briefly: ITC. (In general: ITC needs no label: the signal is the heat of the interaction.)

Several values for one entry are separate records, joined by “and”; a condition that tells them apart may be missing. Identical values can stand only once.

B1: ExoU (natural protein)
chain: MHIQSLGATASSLNQEPVETPSQAAHKSASLRQEPSGQGLGVALKSTPGILSGKLPESVSDVRFSSPQGQGESRTLTDSAGPRQITLRQFENGVTELQLSRPPLTSLVLSGGGAKGAAYPGAMLALEEKGMLDGIRSMSGSSAGGITAALLASGMSPAAFKTLSDKMDLISLLDSSNKKLKLFQHISSEIGASLKKGLGNKIGGFSELLLNVLPRIDSRAEPLERLLRDETRKAVLGQIATHPEVARQPTVAAIASRLQSGSGVTFGDLDRLSAYIPQIKTLNITGTAMFEGRPQLVVFNASHTPDLEVAQAAHISGSFPGVFQKVSLSDQPYQAGVEWTEFQDGGVMINVPVPEMIDKNFDSGPLRRNDNLILEFEGEAGEVAPDRGTRGGALKGWVVGVPALQAREMLQLEGLEELREQTVVVPLKSERGDFSGMLGGTLNFTMPDEIKAHLQERLQERVGEHLEKRLQASERHTFASLDEALLALDDSMLTSVAQQNPEITDGAVAFRQKARDAFTELTVAIVSANGLAGRLKLDEAMRSALQRLDALADTPERLAWLAAELNHADNVDHQQLLDAMRGQTVQSPVLAAALAEAQRRKVAVIAENIRKEVIFPSLYRPGQPDSNVALLRRAEEQLRHATSPAEINQALNDIVDNYSARGFLRFGKPLSSTTVEMAKAWRNKEFT
Consider B1, for which the Ka was 3.08e+07 M⁻¹ and 1.77e+07 M⁻¹.

Values taken from PMC3498133 (2012).
